According to patent US20220396633A1 (MABPRO A S, published 2022):
Substitutions are numbered along the chain they refer to.

B1: CA9hu-2_HC3LC1 (antibody, V domains shown)
VH: QVQLVESGGGVVQPGGSLRLSCAASGFTFNTNAMHWVRQAPGRGLEWVARIRSKSNNYTTYYADSVKDRFTISRDNSKNTLYLQVNSLRAEDTAVYYCVCGSWFAYWGQGTLVTVSS
VL: DVVMTQSPDSLAVSLGERVTINCKSSQSLLNSSNQKNYLAWYQQKPGQSPKLLIYFTSTRQSGVPDRFSGSGSGTDFTLTISSLQAEDVAVYYCQQHYSIPLTFGQGTKLEIK
notes: Humanized variant of IV/18; VH in-frame with human IgG constant domain (allotype G1m17,1), VL in-frame with human kappa constant domain (allotype Km3)
B2: CA9hu-2_HC4LC2 (antibody, V domains shown)
VH: B1 VH with Q1E, G16R, R43K, V85M
VL: B1 VL with V2I, V19A, Y42F, S49P, K51N, L53V, S82N, Y93F, K109Q, L110V
notes: as for B1
B3: CA9hu-2_HC3LC2 (antibody, V domains shown)
VH: B1 VH
VL: B1 VL with V2I, V19A, Y42F, S49P, K51N, L53V, S82N, Y93F, K109Q, L110V
notes: as for B1
B4: CA9hu-2_HC3LC3 (antibody, V domains shown)
VH: B1 VH
VL: B1 VL with V2I, V3Q, V19A, S49P, Y93F, L110V
notes: as for B1
B5: CA9hu-2_HC3LC4 (antibody, V domains shown)
VH: B1 VH
VL: B1 VL with V2I, V19A, Y42F, S49P, L52V, S69T
notes: as for B1

molecular target: CA IX-positive antigen (protein extract of C-33a_CA IX cells) (human, UniProt Q16790 38-459); experiment: ELISA, antibody 5 ug/ml on coated protein extract of C-33a_CA IX cells versus C-33a_neo
Method: To evaluate the antigen-binding specificity, all twenty-five humanized variants of CA9hu-2 were subjected to enzyme-linked immunosorbent assay (ELISA) using either CA IX-positive or CA IX-negative antigen. Antigens were prepared from stably transfected C-33a cell line expressing CA IX (C-33a_CA IX) and parental mock-transfected C-33a cells without CA IX expression (C-33a_neo).
Proteins were extracted from the cell monolayer with RIPA lysis buffer (0.1% deoxycholate, 1% Triton X-100 and protease inhibitor cocktail in PBS). Protein concentrations were determined by bicinchoninic acid assay (ThermoFisher Scientific, Waltham, Mass. USA) according to the manufacturer's instructions. Protein extracts were diluted to final concentration 0.2 mg/ml in PBS. Protein concentration of antigen samples used in screening of antigen-antibody specific interaction tested by ELISA meets the requirements for low detergent content that could otherwise interfere throughout the analysis. 50 μl of either CA IX-positive or CA IX-negative antigen was coated on the surface of microplate wells overnight at 37° C. After washing with PBS-T 0.05% Tween-20 in PBS pH7.2, 50 μl of all humanized variants of CA9hu-2 (diluted to concentration 5 μg/ml in 10% FCS in PBS-T) were added and incubated for 2 h at room temperature. Peroxidase-labeled swine anti-human IgG (diluted 1:5000 in 10% FCS in PBS-T; Sigma-Aldrich, St. Louis, Mo. USA) was used as detector. Parental IV/18 antibody (marked as “mouse Ab”) as well as chimeric HC0LC0 antibody (having the murine variable domains and the human Ig constant domains) were used as reference samples. Results are expressed as a fold of induction and are calculated as O.D. values of absorbance measured at 492 nm from CA IX-positive antigen/O.D. values of absorbance measured at 492 nm from CA IX-negative antigen.

Row | binding result | Binder
1 | binds | B1
2 | binds | B2
3 | binds | B3
4 | binds | B4
5 | binds | B5
